Experimental data taken from article PMC11314421.

B1: Q3 (biotinylated, SPR) (structured_RNA)
RNA: CUCAAGCGGUGCUUGAAGGGGAGGGAAAGCGGGAAAGCGGGCAACCACUUUUCCCUAGC
B2: Q2 (biotinylated, SPR) (structured_RNA)
RNA: UUUUUCCUGGAAUUUGGAGGGAUGGGAGGAGGGGGUGGGGCUUACUUGUUGUAGCUU

Biological target: ΔNCL (DelNucleolin) (UniProt P19338 284-710, del1-283)
Assay: SPR

ΔNCL (DelNucleolin), sequence (P19338 284-710, stated change not applied): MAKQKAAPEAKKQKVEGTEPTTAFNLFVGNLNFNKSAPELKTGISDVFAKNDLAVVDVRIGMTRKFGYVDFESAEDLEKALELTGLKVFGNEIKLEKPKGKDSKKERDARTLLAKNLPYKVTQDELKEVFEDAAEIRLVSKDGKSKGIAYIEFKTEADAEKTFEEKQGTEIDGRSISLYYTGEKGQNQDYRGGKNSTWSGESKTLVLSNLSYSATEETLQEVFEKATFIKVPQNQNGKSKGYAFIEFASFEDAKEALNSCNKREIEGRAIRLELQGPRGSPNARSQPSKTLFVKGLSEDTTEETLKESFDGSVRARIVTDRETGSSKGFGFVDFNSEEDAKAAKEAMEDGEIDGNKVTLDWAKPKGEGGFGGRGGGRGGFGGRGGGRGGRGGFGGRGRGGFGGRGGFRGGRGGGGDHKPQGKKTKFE

Binder | Kd [nM]
B1 | 15
B2 | 4
